Source: patent publication US20200247894A1 (Regeneron, published 2020)
Numbering of substitutions follows the chain as printed.

T1: Human IL2Rγ extracellular domain expressed with a C-terminal myc-myc-hexahistidine tag (human)
T1 construct: also called hIL-2Rg-MMH; hIL-2RG-MMH
T1 chain: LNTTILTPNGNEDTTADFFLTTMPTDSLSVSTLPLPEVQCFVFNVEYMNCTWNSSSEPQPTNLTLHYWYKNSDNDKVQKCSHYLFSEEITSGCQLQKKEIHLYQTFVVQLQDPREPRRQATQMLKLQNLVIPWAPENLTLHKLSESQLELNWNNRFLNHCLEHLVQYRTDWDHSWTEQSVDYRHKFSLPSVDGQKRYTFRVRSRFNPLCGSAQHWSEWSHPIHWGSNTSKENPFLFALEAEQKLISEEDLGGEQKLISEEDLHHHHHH

T2: Macaca fascicularis IL2Rγ extracellular domain expressed with a C-terminal myc-myc-hexahistidine tag (Macaca fascicularis)
T2 construct: also called mfIL-2Rg-MMH; mfIL-2RG-MMH
T2 chain: T1 chain with T14A, A16T, T22S, H141R, T228S

T3: Macaca fascicularis IL2Rγ extracellular domain expressed with a C-terminal myc-myc-hexahistidine tag (Macaca fascicularis)
T3 construct: also called mfIL-2Rg-MMH; mfIL-2RG-MMH
T3 chain: T1 chain with T14A, A16T, T22S, H141R, T228S

T4: Human IL2Rγ extracellular domain expressed with a C-terminal myc-myc-hexahistidine tag (human)
T4 construct: also called hIL-2Rg-MMH; hIL-2RG-MMH
T4 chain: T1 chain

B1: H4H12926P2 (antibody, human IgG4 S228P, kappa, V domains shown)
VH: QVQLQQSGPGLVKPSQTLSLTCAISGDSVSSNIAAWNWIRLSPSRGLEWLGRTFFRSTWFYDYSLSVKGRITINPDTSKNQFSLHLNSVTPEDAAVYYCARTGRRWSLDYWGQGTLVTVSS
VL: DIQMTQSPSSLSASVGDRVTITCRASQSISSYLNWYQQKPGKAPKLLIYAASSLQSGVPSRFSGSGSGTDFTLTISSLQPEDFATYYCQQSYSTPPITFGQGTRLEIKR
notes: anti-IL2Rgamma mAb expressed with human IgG4 Fc
B2: H4H13538P (antibody, human IgG4 S228P, kappa, V domains shown)
VH: EVQLVESGGGLVQPGGSLGLSCAASGFTFSNYAMSWVRQAPGKGLEWVSAVSGGGGGTYYADSVKGRFTISRDNSKNTVLLQMNSLRAEDTAVYYCARGRTGGLDYWGPGTLVTVSS
VL: DVVMTQSPLSLPVIFGQPASISCRSSQSLVDSDGNTYLNWLQQRPGQSPRRLIYEVSNRDSGVPDRFSGSGSGTDFTLTISRVEAEDVGIYYCMQGTRWPPTFGGGTKVEIKR
notes: anti-IL2Rγ monoclonal antibody expressed with human IgG4 Fc
B3: H4H13544P2 (antibody, human IgG4 S228P, kappa, V domains shown)
VH: QLQLQESGPGLVKPSETLSLTCTVSGGSISIKNYYWGWIRQPPGKGLEWIGSIYYSGTTYYNPSLKSRVTISVDTSKNQFSLKLSSVTAADTAVYHCARHGYSYGHGWFDPWGQGTLVTVSS
VL: not shown
notes: as for B1
B4: H4H13544P2 (antibody, human IgG4 S228P, kappa, V domains shown)
VH: B3 VH
VL: not shown
notes: as for B2

What was measured:
[1] = biological target: T1, Human IL2Rγ extracellular domain …; assay: SPR, captured mAb, 37C, dissociation pH 7.4
Experimental: (§1) The dissociation rate constant (kd) for binding of IL-2Rγ reagents to purified anti-IL2Rγ monoclonal antibodies was determined using a real-time surface plasmon resonance based Biacore 4000 biosensor platform. […] The CM5 Biacore sensor surface derivatized by amine coupling with monoclonal mouse anti-human Fc antibody (GE, Catalog # BR-1008-39) was used to capture anti-IL2Rγ monoclonal antibodies expressed with human IgG4 Fc. All the IL2Rγ reagents were expressed with a C-terminal myc-myc-hexahistidine tag (subsequently referred to with a -MMH suffix). […] The dissociation of bound IL-2Rg-MMH was performed in PBS-T-pH7.4 or PBS-T-pH6.0 running buffers for 6 minutes.
(§2) Dissociation rate constants (kd) in two running buffers were determined by fitting the real-time binding sensorgrams to a 1:1 binding model using Scrubber 2.0c curve-fitting software. Values of dissociation rate for […] mAb binding to hIL-2RG-MMH and mfIL-2RG-MMH at 25° C. and 37° C. in PBS-T-pH7.4 and PBS-T-pH6.0 is shown in Table 2-1 through Table 2-8.

[2] = biological target: T1, Human IL2Rγ extracellular domain …; assay: SPR, captured mAb, 37C, dissociation pH 6.0
Experimental: as §1, §2

[3] = biological target: T2, Macaca fascicularis IL2Rγ extracellular …; assay: SPR, captured mAb, 25C, dissociation pH 7.4
Experimental: as §1, §2

[4] = biological target: T1, Human IL2Rγ extracellular domain …; assay: SPR, captured mAb, 25C, dissociation pH 7.4
Experimental: as §1, §2

[5] = biological target: T2, Macaca fascicularis IL2Rγ extracellular …; assay: SPR, captured mAb, 25C, dissociation pH 6.0
Experimental: as §1, §2

[6] = biological target: T1, Human IL2Rγ extracellular domain …; assay: SPR, captured mAb, 25C, dissociation pH 6.0
Experimental: as §1, §2

[7] = biological target: T3, Macaca fascicularis IL2Rγ extracellular …; assay: SPR Biacore 4000, mAb captured by anti-hFc, 37C, dissociation in PBS-T pH 7.4
Experimental: as §1, §2

[8] = biological target: T3, Macaca fascicularis IL2Rγ extracellular …; assay: SPR Biacore 4000, mAb captured by anti-hFc, HBS-ET, 25C
Experimental: (§3) Equilibrium dissociation constants (KD values) for IL-2Rγ binding to purified anti-IL2Rγ monoclonal antibodies were determined using a Biacore 4000 instrument equipped with a real-time surface plasmon resonance biosensor. All binding studies were performed in 10 mM HEPES, 150 mM NaCl, 3 mM EDTA, and 0.05% v/v Surfactant Tween-20, pH 7.4 (HBS-ET) running buffer at 25° C. and 37° C. The Biacore sensor surface was first derivatized by amine coupling with a monoclonal mouse anti-human Fc antibody (GE, # BR-1008-39) to capture anti-IL2Rγ monoclonal antibodies.
(§4) The dissociation of monoclonal antibody bound IL2Rγ reagents were monitored for 8-10 minutes in HBS-ET running buffer. Kinetic association (kₐ) and dissociation (kd) rate constants were determined by fitting the real-time sensorgrams to a 1:1 binding model using Scrubber 2.0c curve fitting software. Binding dissociation equilibrium constants (KD) and dissociative half-lives (t_{1/2}) were calculated from the kinetic rate constants as: […]

[9] = biological target: T4, Human IL2Rγ extracellular domain …; assay: as above
Experimental: as §3, §4

[10] = biological target: T3, Macaca fascicularis IL2Rγ extracellular …; assay: SPR Biacore 4000, mAb captured by anti-hFc, 37C, dissociation in PBS-T pH 6.0
Experimental: as §1, §2

[11] = biological target: T4, Human IL2Rγ extracellular domain …; assay: SPR Biacore 4000, mAb captured by anti-hFc, HBS-ET, 37C
Experimental: as §3, §4

Row | Binder | 100 nM Ag Bound (RU) [1] [RU] | koff [1] [s⁻¹] | t1/2 [1] [min] | 100 nM Ag Bound (RU) [2] [RU] | koff [2] [s⁻¹] | t1/2 [2] [min] | 100 nM Ag Bound (RU) [3] [RU] | koff [3] [s⁻¹] | t1/2 [3] [min] | 100 nM Ag Bound (RU) [4] [RU] | koff [4] [s⁻¹] | t1/2 [4] [min] | 100 nM Ag Bound (RU) [5] [RU] | koff [5] [s⁻¹] | t1/2 [5] [min] | 100 nM Ag Bound (RU) [6] [RU] | koff [6] [s⁻¹] | t1/2 [6] [min] | 100 nM Ag Bound (RU) [7] [RU] | koff [7] [s⁻¹] | also measured
1 | B1 | 14 | 0.0308 | 0.4 | 14 | 0.0312 | 0.4 | 43 | 0.00782 | 1.5 | 29 | 0.0133 | 0.9 | 32 | 0.0185 | 0.6 | 24 | 0.0297 | 0.4 |  |  | 
2 | B2 |  |  |  |  |  |  |  |  |  |  |  |  |  |  |  |  |  |  | 119 | 0.00051 | t1/2 [7]: 23 min; 100 nM Ag Bound [8]: 81 RU; Kd [8]: 2.28 nM; koff [8]: 0.000304 s⁻¹; kon [8]: 133000 M⁻¹ s⁻¹; t1/2 [8]: 38 min; 100 nM Ag Bound [9]: 68 RU; Kd [9]: 1.02 nM; koff [9]: 0.000227 s⁻¹; kon [9]: 222000 M⁻¹ s⁻¹; t1/2 [9]: 51 min; 100 nM Ag Bound (RU) [10]: 122 RU; koff [10]: 0.00139 s⁻¹; t1/2 [10]: 8 min; 100 nM Ag Bound [11]: 99 RU; Kd [11]: 3.4 nM; koff [11]: 0.00108 s⁻¹; kon [11]: 319000 M⁻¹ s⁻¹; t1/2 [11]: 11 min
3 | B3 | 54 | 0.0041 | 2.8 | 39 | 0.00827 | 1.4 | 67 | 0.000584 | 20 | 57 | 0.000602 | 19 | 52 | 0.0017 | 7 | 45 | 0.00175 | 7 |  |  | 
4 | B4 |  |  |  |  |  |  |  |  |  |  |  |  |  |  |  |  |  |  | 58 | 0.00362 | t1/2 [7]: 3.2 min; 100 nM Ag Bound [8]: 60 RU; Kd [8]: 24.6 nM; koff [8]: 0.00127 s⁻¹; kon [8]: 51700 M⁻¹ s⁻¹; t1/2 [8]: 9 min; 100 nM Ag Bound [9]: 51 RU; Kd [9]: 28.7 nM; koff [9]: 0.00135 s⁻¹; kon [9]: 47200 M⁻¹ s⁻¹; t1/2 [9]: 9 min; 100 nM Ag Bound (RU) [10]: 43 RU; koff [10]: 0.00781 s⁻¹; t1/2 [10]: 1.5 min; 100 nM Ag Bound [11]: 49 RU; Kd [11]: 103 nM; koff [11]: 0.00782 s⁻¹; kon [11]: 76000 M⁻¹ s⁻¹; t1/2 [11]: 1.5 min
